# B1: GhJAZ1: cotton JAZ1 protein, gene number Gh_A05G0260, sequence SEQ ID No. 4; prokaryotically expressed with His tag, about 30 KD (protein)
# chain: MSSCSESTAMKPARSPEKPSFAQTCNLLSQYLKEKGSFGDLSLGMTCNVEANGTPVVPPPTMNLFPLNDKSDDVCGRNGGNPKNLTSMDLFPQQAGLASKDDSPNKLEPQTAPMTIFYGGQVIVFNDFPANKAKEIMLLASNSSSQSNNSFNPIPFTSSIARSPIESSIGVPPTSKPVHPAQRAVPGDLPIARRASLHRFLEKRKDRITAKAPYQINNSAAAPSLSGDNKSWLGLAAQSP
# modifications: His tag
# notes: prokaryotically expressed with His tag, about 30 KD
# Assays:
# [1] = test system: normal breast epithelial cells MCF10A; experiment: Cell cycle detection (PI DNA content), MCF10A; type: cell-based; settings: 0.691 μM, 24 h, vs PBS
# Description: Cell cycle detection: cells were moderately digested by trypsin, and collected by centrifugation with supernatant removed, and then cells were washed with PBS, and collected by centrifugation at 1,500 rpm for 5 minutes to prepare a single-cell suspension (at a concentration of 1×10^6/ml). 1 ml of single-cell suspension was then taken and centrifuged with the supernatant discarded, and then 500 μl of 70% pre-cooled ethanol were added to fix the cells overnight at 4° C. The next day, cells were collected by centrifugation, resuspended with 1 ml of PBS and centrifuged, and then 100 μl of RNase A solution were added to the cell pellet, followed by placement in water bath at 37° C. for 30 min, and then 400 μl of PI staining solution was added and mixed well, followed by incubation at 4° C. in dark for 30 min and detection on the instrument to record under red fluorescence at the excitation wavelength of 488 nm. Specifically, a DNA content detection kit (cell cycle) (Solarbio, Cat. No.: CA1510) was used.
# [2] = test system: downstream genes of c-Myc in MCF7 cells; experiment: Transcriptome sequencing and RT-PCR of c-Myc downstream genes, MCF7; type: cell-based, human
# Description: (§1) Identification at the RNA level: RNA was extracted using RNA extraction kit (RNAprep Pure Polysaccharide Polyphenol Plant Total RNA Extraction Kit (DP441), manufacturer: TIANGEN BIOTECH (BEIJING) CO., LTD.), and then cDNA was obtained using two-step reverse transcription kit (a third-generation premix for two-step de-genomization and reverse transcription, Cat. No.: MR05201). cDNA as a template was added into a 96-well plate, with addition of SYBR®Green I chimeric dye (an antibody dye quantitative PCR premix, Cat. No.: MQ10101) and gene primers for three-step qPCR amplification. Finally, the relative gene expression was calculated based on the Ct value.
# And it was validated to be consistent with the transcriptome results (B in FIG. 9) by RT-PCR (the steps of method as Example 1). Wherein, the sequences of RT-PCR primers were as follows: […]
# (§2) Wherein, the sequences of primers were as follows: […]
# [3] = test system: downstream genes of c-Myc in normal cell MCF10A; experiment: RT-PCR of c-Myc downstream genes, MCF10A; type: cell-based, human
# Description: as §1, §2
# [4] = test system: breast cancer cells (MCF7); experiment: CCK8 cell viability detection, MCF7; type: cell-based, human
# Description: (§3) CCK8 cell viability detection: cell suspension was seeded in 96-well plates at a concentration of 5×10^4 cells/ml (100 μL/well). The plates were placed in the incubator for pre-culture (at 37° C., 5% CO2), and control and protein agents were added to each well 24 h after seeding. The plates were then placed in the incubator for 24 h, followed by addition of 10 μL CCK8 solution into each well and incubation of the plates in the incubator for 0.5-2 h before the absorbance measurement at 450 nm using a microplate reader.
# We constructed GhJAZ1 prokaryotic expression plasmid with His-tag to express proteins (see step 2 in Example 4), and then a GhJAZ1 protein, along with 6 His tags, which was approximately 30 KD in size was found by WB detection (A in FIG. 7). The purified GhJAZ1 protein was used to treat breast cancer cells (MCF7) and breast epithelial cells (MCF10A), and the cell viability was measured with CCK8.
# c-Myc = c-Myc (Homo sapiens, UniProt P01106); experiment: GST Pull down experiment with c-Myc; type: binding; set-up: with the full length of c-Myc and NMYC, respectively; expressed in transfected cells; host or cells: yeast Y2HGold; settings: GST-c-Myc and His-GhJAZ1 fusion proteins
# Chain of c-Myc (P01106 whole entry, the tested form may be a part): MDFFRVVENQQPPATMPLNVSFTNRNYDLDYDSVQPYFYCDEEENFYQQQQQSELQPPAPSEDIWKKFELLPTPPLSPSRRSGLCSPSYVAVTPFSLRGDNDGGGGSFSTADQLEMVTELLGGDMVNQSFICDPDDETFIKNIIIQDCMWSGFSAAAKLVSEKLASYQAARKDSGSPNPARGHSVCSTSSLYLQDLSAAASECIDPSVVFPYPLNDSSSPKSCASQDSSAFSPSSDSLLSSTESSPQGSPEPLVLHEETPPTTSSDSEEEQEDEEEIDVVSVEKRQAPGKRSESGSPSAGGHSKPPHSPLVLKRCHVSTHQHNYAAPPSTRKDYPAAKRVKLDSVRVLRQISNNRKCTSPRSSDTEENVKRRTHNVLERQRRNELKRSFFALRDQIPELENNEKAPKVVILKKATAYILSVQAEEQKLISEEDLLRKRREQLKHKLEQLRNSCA
# Description: Simultaneously, the interaction was validated by GST Pull down experiment. Firstly, pET-30a-GhJAZ1 (the DNA sequence set forth in SEQ ID No. 39 was inserted into pET-30a (+) vector (YouBio, Cat. No.: VT1212) between NdeI and HindIII) and pGEX-4T-1-c-Myc vectors (the CDS sequence of c-Myc (NCBI accession number: NM_002467.6) was inserted into pGEX-4T-1 vector (YouBio, Cat. No.: VT1253) between BamHI and EcoRI) was constructed and transformed into Escherichia coli BL21, which was placed on ice for 30 min, followed by heat shock at 42° C. for 60 s, and then placed on ice for 2 min, and then LB medium was added for cultivation at 37° C. and 200 rpm for 1 h, which was plated onto LB plates containing corresponding antibiotics for cultivation at 37° C. After colonies grown out, monoclonal clones were picked and shaking for incubation and expanded until the medium began to turn slightly white, and then different concentrations of IPTG were added for induction and cultured overnight under different temperatures setting. Subsequently, centrifugation at 5,000 rpm, 4° C. was carried out for 10 min, with addition of an equal volume of PBS (supplemented with PMSF and DTT) for resuspending. […] The supernatant was transferred into a protein purification column, and washed and eluted following incubation, and then proteins were detected and collected dropwise using protein pre-staining solution. […]
# [5] = test system: cervical cancer cells Hela; experiment: CCK8 cell viability detection, Hela; type: cell-based, human; settings: CCK8, 24 h treatment; read-out: IC50, inhibition of Hela cells
# Description: as §3
# Analysis of effect of GhJAZ1 protein on the cell cycle and apoptosis of tumor cells
molecule,measurement,setting,value
B1,G2-M phase block in MCF10A cells,[1],no G2-M phase block
same,"expression of cell cycle-related genes (transcriptome, validated by RT-PCR)","[2]; MCF7, 0.691 μM, 24 h",down regulated
same,expression of CCNE1,"[2]; MCF7, RT-PCR",extremely significantly upregulated
same,expression of P21 gene,"[2]; MCF7, RT-PCR",extremely significantly upregulated
same,"expression of apoptosis related genes Bcl2, BAX, HK2, FASN, MCM5 downstream of c-Myc","[2]; MCF7, RT-PCR",extremely significantly downregulated
same,"expression of cell cycle-related genes CCNA2, CCNB1, CCND1","[2]; MCF7, RT-PCR",extremely significantly downregulated
same,expression of Bcl2 and MCM5,[3],significantly decreased but at a minor extent
same,"expression of P21C, CNB1, CCND1, and CCNE1",[3]; at a minor extent,significantly increased
same,IC50,"[4]; CCK8, 24 h treatment, read-out: IC50, inhibition of MCF7 cells",691 nM
same,viability of MCF7 cells,[4]; with the increase of GhJAZ1 protein concentration,decreased significantly
same,interaction with c-Myc,c-Myc,interacted
same,IC50,[5],553 nM

# Reference: US20240279288A1, “APPLICATION OF PLANT JAZ PROTEINS AND DERIVED POLYPEPTIDES IN PREVENTION AND TREATMENT OF HUMAN AND ANIMAL TUMORS” (ANYANG INSTITUTE OF SINO-COTTON INDUSTRY INNOVATION, priority 2021, published 2024)
